Measured values taken from article PMC7494997.

Columns and labels:
hVSIG3-Fc (human) = hVSIG3-Fc (human) (UniProt Q5DX21); test: ELISA; binding curves of the VISTA-Fc mutants E125A and F62A (Supplementary Fig. S6D, S6E); conditions not given
Human PSGL-1-Fc (human) = Human PSGL-1-Fc (human) (UniProt Q14242); test: as above
Human PSGL-1-Fc (human), sequence (Q14242 42-320): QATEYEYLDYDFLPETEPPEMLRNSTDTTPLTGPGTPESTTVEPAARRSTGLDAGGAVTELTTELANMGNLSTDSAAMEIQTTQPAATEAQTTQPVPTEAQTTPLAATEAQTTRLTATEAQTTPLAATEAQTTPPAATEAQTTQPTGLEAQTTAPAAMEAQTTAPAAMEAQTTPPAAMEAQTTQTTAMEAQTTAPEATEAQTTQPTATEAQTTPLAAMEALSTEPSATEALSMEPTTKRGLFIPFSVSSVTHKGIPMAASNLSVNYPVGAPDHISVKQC

hVSIG3-Fc (human), sequence (Q5DX21 23-241): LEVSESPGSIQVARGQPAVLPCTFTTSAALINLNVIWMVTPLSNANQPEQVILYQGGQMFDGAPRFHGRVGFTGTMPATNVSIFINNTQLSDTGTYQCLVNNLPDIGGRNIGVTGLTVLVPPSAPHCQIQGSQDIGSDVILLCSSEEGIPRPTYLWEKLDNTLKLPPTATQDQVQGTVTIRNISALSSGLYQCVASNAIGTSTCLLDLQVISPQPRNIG

| Substance | fold affinity over the WT VISTA interaction (hVSIG3-Fc (human)) | fold affinity over the WT VISTA interaction (Human PSGL-1-Fc (human)) |
| --- | --- | --- |
| soluble hVISTA-Fc F62A (Fc fusion) | > 2 fold | – |
| soluble hVISTA-Fc E125A (Fc fusion) | – | > 2 fold |
